Test results as given in patent US20260263595A1 (BETH ISRAEL DEACONESS MEDICAL CENTER, published 2026).

Target: T1, human CD40 on human B cells (CD20+ cells of human PBMCs) (human, UniProt P25942 21-277)
T1 construct: whole, on cells; also called native CD40 on human blood B cells; human CD20+ B cells
Test: flow cytometry on human PBMCs, CD20+ gate (FIG. 2A)
Procedure: The CD40 antibody 2C10 was characterized with respect to its ability to affect B cell activation both using rhesus monkey and human peripheral blood mononuclear cells (PBMCs). CD20 expression was chosen as being an indicator of B cells, and expression of CD23, CD80, and CD86 is associated with B cell activation. 2C10 was first assessed for its ability to bind to […]. Rhesus or human PBMCs were incubated with fluorochrome-conjugated 2C10 and an anti-CD20 antibody. Flow cytometric analysis was used to confirm the binding of 2C10 to human and rhesus CD20+ B cells (FIG. 2A). In another set of experiments, PBMCs from either rhesus monkey or humans were cultured either in the presence or absence of CD154⁺ Jurkat D1.1 cells, an immortalized T lymphocyte cell line. Activation of B cells was determined by measuring expression of three markers (CD23, CD80, and CD86) in CD20⁺ cells present in the PBMCs.

T1 sequence (P25942 21-277): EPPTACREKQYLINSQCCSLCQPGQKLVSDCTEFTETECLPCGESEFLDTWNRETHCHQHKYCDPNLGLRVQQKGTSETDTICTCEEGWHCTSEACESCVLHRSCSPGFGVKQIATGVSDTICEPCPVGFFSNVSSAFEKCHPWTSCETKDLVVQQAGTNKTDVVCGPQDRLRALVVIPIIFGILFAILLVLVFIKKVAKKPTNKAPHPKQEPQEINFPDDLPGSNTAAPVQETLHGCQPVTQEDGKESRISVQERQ

B1: anti-CD40 antibody 2C10 (antibody, mouse IgG1, V domains shown)
VH: QVQLQQSGAELAKPGASVKMSCKASGYTFTNYWMHWVKQRPGQGLEWIGYINPSNDYTKYNQKFKDKATLTADKSSNTAYMQLGSLTSEDSAVYYCARQGFPYWGQGTLVTVS
VL: QIVLTQSPAIMSASPGEKVTMTCSASSSVSYMHWYHQRSGTSPKRWIYDTSKLASGVPARFSGSGSGTSYSLTISSMEAEDAATYYCHQLSSDPFTFGSGTKLEIK
notes: also called 2C10 antibody; APC-conjugated 2C10
- binding result: binds
